± gives the uncertainty stated by the source.
Assay: self-splicing fitness, log relative to wild type (ln ratio); higher = more splicing; Tetrahymena group I intron in knt gene, E. coli kanamycin selection, DiMSum; sequences stand for … in CUCUCU…GGAGGGAAAAGUUAUCAGGCAUGCACCUGGUAGCUAGUCUUUAAACCAAUAGAUUGCAUCGGUUUAAAAGGCAAGACCGUCAAAUUGCGGGAAAGGGGUCAACAGCCGUUCAGUACCAAGUCUCAGGGGAAACUUUGAGAUGGCCUUGCAAAGGGUAUGGUAAUAAGCUGACGGACAUGGUCCUAACCACGCAGCCAAGUCCUAAGUCAACAGAUCUUCUGUUGAUAUGGAUGCAGUUCACAGACUAAAUGUCGGUCGGGGAAGAUGUAUUCUUCUCAUAAGAUAUAGUCGGACCUCUCCUUAAUGGGAGCUAGCGGAUGAAGUGAUGCAACACUGGAGCCGCUGGGAACUAAUUUGUAUGCGAAAGUAUAUUGAUUAGUUUUGGAGUACUCGUGGUCG
Summary of the method: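 Colonies from six replicate transformations of E. coli BL21(DE3) were pooled and amplicon-sequenced on an Illumina HiSeq 2500. The library placed an intron with all eight P1ex-region nucleotides randomised inside the knt kanamycin-resistance gene on pET-22b(+), and cells grew overnight at 37°C or 30°C on LB agar with or without 25 μg/mL kanamycin (plus 100 μg/mL carbenicillin, 50 μM IPTG, 0.2% rhamnose). Fitness is the DiMSum error-weighted combination of wild-type-normalised replicate fold changes, kanamycin versus none.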

Sequence	self-splicing fitness (ln) (30 °C)	self-splicing fitness (ln) (37 °C)
GUUUAGCAAUAUUACGUUGA	-3.52 ± 0.43	-2 ± 0.26
UAAAAGCAAUAUUACGAACG	0.282 ± 0.1	0.847 ± 0.12
UAAAAGCAAUAUUACGACAA	-0.243 ± 0.1	0.272 ± 0.11
UAAAAGCAAUAUUACGACUA	0.337 ± 0.089	0.733 ± 0.12
UAAAAGCAAUAUUACGAGGG	-3.83 ± 0.33	-2.47 ± 0.3
UAAAAGCAAUAUUACGAGUC	-3.45 ± 0.27	-3.74 ± 0.39
UAAAAGCAAUAUUACGAUAC	-2.36 ± 0.31	-3.93 ± 0.46
UAAAAGCAAUAUUACGAUGU	-2.44 ± 0.15	-1.33 ± 0.19
UAAAAGCAAUAUUACGCAAA	-3.71 ± 0.4	-0.788 ± 0.18
UAAAAGCAAUAUUACGCAUG	-0.716 ± 0.068	-0.257 ± 0.1
UAAAAGCAAUAUUACGCCCC	-3.1 ± 0.49	0.13 ± 0.35
UAAAAGCAAUAUUACGGACU	-1.21 ± 0.072	-0.711 ± 0.094
UAAAAGCAAUAUUACGGCCG	0.132 ± 0.12	0.444 ± 0.17
UAAAAGCAAUAUUACGGCGA	-0.67 ± 0.11	0.453 ± 0.13
UAAAAGCAAUAUUACGGCGU	-1.12 ± 0.084	-0.0589 ± 0.1
UAAAAGCAAUAUUACGGCUA	0.159 ± 0.073	-0.0882 ± 0.084
UAAAAGCAAUAUUACGGGGA	-1.73 ± 0.12	-0.962 ± 0.12
UAAAAGCAAUAUUACGGGGG	-2.62 ± 0.19	-2.43 ± 0.24
UAAAAGCAAUAUUACGGGUG	-0.67 ± 0.042	-0.46 ± 0.061
UAAAAGCAAUAUUACGGUCG	-0.35 ± 0.087	-0.0674 ± 0.1
UAAAAGCAAUAUUACGUAGC	-3.26 ± 0.19	-2.72 ± 0.18
UAAAAGCAAUAUUACGUAUC	-3.81 ± 0.35	-2.07 ± 0.23
UAAAAGCAAUAUUACGUUGG	-2.36 ± 0.1	-1.42 ± 0.12
UAAAAGCAAUAUUACGUUUC	-3.32 ± 0.14	-2.36 ± 0.19
UAACAGCAAUAUUACGCCAC	-3.93 ± 0.35	-1.54 ± 0.23

Sequence	self-splicing fitness (ln) (30 °C)	self-splicing fitness (ln) (37 °C)
UAACAGCAAUAUUACGCCCG	-0.202 ± 0.16	-0.59 ± 0.18
UAACAGCAAUAUUACGCGGU	-3.25 ± 0.17	-3.29 ± 0.15
UAACAGCAAUAUUACGCUCC	-2.62 ± 0.32	-1.22 ± 0.3
UAACAGCAAUAUUACGCUUG	-0.975 ± 0.06	-0.577 ± 0.082
UAACAGCAAUAUUACGGAAC	-3.85 ± 0.24	-4.18 ± 0.39
UAACAGCAAUAUUACGGACC	-3.44 ± 0.43	-1.98 ± 0.28
UAACAGCAAUAUUACGGAGA	-3.27 ± 0.21	-1.1 ± 0.11
UAACAGCAAUAUUACGGCUA	0.184 ± 0.052	-0.0982 ± 0.067
UAACAGCAAUAUUACGGGAA	-1.76 ± 0.13	-1.35 ± 0.11
UAACAGCAAUAUUACGGUAU	-3.01 ± 0.11	-2.06 ± 0.17
UAACAGCAAUAUUACGGUUC	-2.65 ± 0.069	-1.28 ± 0.08
UAACAGCAAUAUUACGUAAC	-2.93 ± 0.17	-1.62 ± 0.16
UAACAGCAAUAUUACGUAGU	-3.35 ± 0.14	-2.7 ± 0.18
UAACAGCAAUAUUACGUCGA	-1.03 ± 0.12	0.186 ± 0.098
UAACAGCAAUAUUACGUCGG	-0.858 ± 0.066	-0.53 ± 0.08
UAACAGCAAUAUUACGUGAC	-3.68 ± 0.2	-2.46 ± 0.17
UAACAGCAAUAUUACGUUCA	-0.481 ± 0.049	0.0141 ± 0.07
UAACAGCAAUAUUACGUUCC	-2.23 ± 0.11	-2.28 ± 0.18
UAACAGCAAUAUUACGUUGG	-1.67 ± 0.083	-0.828 ± 0.096
UAAGAGCAAUAUUACGAAGA		-1.98 ± 0.38
UAAGAGCAAUAUUACGAGCC	-3.56 ± 0.25	-2.26 ± 0.24
UAAGAGCAAUAUUACGAUAG	-3.46 ± 0.31	-2.12 ± 0.33
UAAGAGCAAUAUUACGAUCU	-2.51 ± 0.24	-2.86 ± 0.36
UAAGAGCAAUAUUACGAUGA	-2.15 ± 0.22	-2.63 ± 0.38
UAAGAGCAAUAUUACGCAAC		-2.19 ± 0.45

Sequence	self-splicing fitness (ln) (30 °C)	self-splicing fitness (ln) (37 °C)
UAAGAGCAAUAUUACGCAUG	-2.75 ± 0.28	-1.2 ± 0.23
UAAGAGCAAUAUUACGCGUC	-3.81 ± 0.25	-2.29 ± 0.23
UAAGAGCAAUAUUACGCUCG		-0.845 ± 0.23
UAAGAGCAAUAUUACGGAAC	-2.54 ± 0.33	-3.2 ± 0.46
UAAGAGCAAUAUUACGGGCU		-2.53 ± 0.32
UAAGAGCAAUAUUACGGGGC	-4 ± 0.42	-2.83 ± 0.32
UAAGAGCAAUAUUACGGGUU	-3.51 ± 0.29	-2.06 ± 0.31
UAAGAGCAAUAUUACGGUGC	-3.43 ± 0.28	
UAAGAGCAAUAUUACGUAGA	-3.89 ± 0.23	-1.34 ± 0.28
UAAGAGCAAUAUUACGUAGC	-4.28 ± 0.31	-2.71 ± 0.28
UAAGAGCAAUAUUACGUAUA	-2.64 ± 0.26	-1.97 ± 0.25
UAAGAGCAAUAUUACGUCCC	-3.99 ± 0.42	
UAAGAGCAAUAUUACGUGCA	-2.09 ± 0.2	-0.84 ± 0.2
UAAUAGCAAUAUUACGAAGU		-1.55 ± 0.47
UAAUAGCAAUAUUACGAGGA	-3.68 ± 0.25	-2.62 ± 0.16
UAAUAGCAAUAUUACGAGUA	-2.31 ± 0.14	-0.79 ± 0.11
UAAUAGCAAUAUUACGAGUU	-2.79 ± 0.23	-2.31 ± 0.27
UAAUAGCAAUAUUACGAUAC	-3.78 ± 0.43	
UAAUAGCAAUAUUACGCACU	-1.16 ± 0.11	-1.02 ± 0.12
UAAUAGCAAUAUUACGCCAG	-1.07 ± 0.2	-1.2 ± 0.32
UAAUAGCAAUAUUACGCGAU	-3.2 ± 0.28	-1.86 ± 0.24
UAAUAGCAAUAUUACGGAAC	-3.01 ± 0.2	-0.714 ± 0.16
UAAUAGCAAUAUUACGGCCU	-1.16 ± 0.14	-0.77 ± 0.19
UAAUAGCAAUAUUACGGUCU	-2.75 ± 0.16	-2.49 ± 0.16
UAAUAGCAAUAUUACGUAAU	-3.25 ± 0.29	-2.52 ± 0.34

Sequence	self-splicing fitness (ln) (30 °C)	self-splicing fitness (ln) (37 °C)
UAAUAGCAAUAUUACGUAGA	-3.52 ± 0.18	-1.98 ± 0.17
UAAUAGCAAUAUUACGUAGU	-3.82 ± 0.19	-2.44 ± 0.23
UAAUAGCAAUAUUACGUCGA	-2.4 ± 0.17	-0.993 ± 0.16
UAAUAGCAAUAUUACGUCUC	-3.41 ± 0.26	
UAAUAGCAAUAUUACGUCUG	-0.694 ± 0.075	-0.276 ± 0.089
UACAAGCAAUAUUACGAAAA	-1.94 ± 0.19	-1.22 ± 0.15
UACAAGCAAUAUUACGAAGA	-2.08 ± 0.27	-2.11 ± 0.21
UACAAGCAAUAUUACGACGU	-0.941 ± 0.07	-0.409 ± 0.081
UACAAGCAAUAUUACGAGGC	-2.4 ± 0.3	-1.84 ± 0.28
UACAAGCAAUAUUACGAGUA	-2.13 ± 0.08	-0.707 ± 0.078
UACAAGCAAUAUUACGAGUC	-3.06 ± 0.11	-1.93 ± 0.15
UACAAGCAAUAUUACGAUGU	-3.72 ± 0.17	-1.96 ± 0.14
UACAAGCAAUAUUACGCCUA	0.14 ± 0.067	-0.0341 ± 0.071
UACAAGCAAUAUUACGCGGG	-2.43 ± 0.086	-1.25 ± 0.099
UACAAGCAAUAUUACGCGUA	-2.92 ± 0.24	-2.76 ± 0.33
UACAAGCAAUAUUACGCUAG	-2.16 ± 0.11	-1.13 ± 0.11
UACAAGCAAUAUUACGGAAG	-4.3 ± 0.46	-2.46 ± 0.34
UACAAGCAAUAUUACGGAUC	-2.59 ± 0.21	0.047 ± 0.15
UACAAGCAAUAUUACGGGCG	-0.448 ± 0.1	-0.308 ± 0.11
UACAAGCAAUAUUACGGUAU	-3.83 ± 0.21	-2.54 ± 0.16
UACAAGCAAUAUUACGGUCA	0.157 ± 0.062	0.514 ± 0.072
UACAAGCAAUAUUACGUAGG	-4 ± 0.26	-2.78 ± 0.27
UACAAGCAAUAUUACGUAGU	-3.88 ± 0.17	-2.18 ± 0.15

Source: the supplement of paper PMC7877785
